{"source": "patent US20250043302A1", "about": "“MUTATED HYDROXYPHENYLPYRUVATE DIOXYGENASE POLYPEPTIDE, AND CODING GENE AND USE THEREOF” (BEIJING DABEINONG BIOTECHNOLOGY CO., LTD., priority 2021, published 2025)", "molecules": {"B1": {"name": "OsHPPDm-F372A-02: nucleotide sequence encoding Oryza sativa HPPD with F372A; vector DBN11755 (nucleic acid)", "DNA": "ATGCCACCCACGCCAACACCAACGGCCACCACTGGTGCCGTCTCGGCCGCGGCAGCGGCCGGTGAGAATGCTGGTTTCAGGCTAGTCGGCCACCGCCGCTTCGTGAGGGCAAATCCAAGATCTGATCGGTTCCAAGCACTTGCTTTCCACCATGTTGAGCTGTGGTGCGCTGACGCCGCTTCAGCTGCCGGGAGGTTTGCTTTTGCTTTAGGGGCGCCGCTCGCCGCAAGGAGTGATCTTTCCACCGGAAATTCTGCTCATGCTTCTCTTCTACTTAGATCAGCAAGTGTTGCATTTCTGTTCACTGCACCTTATGGCGGAGACCATGGTGTCGGGGCCGATGCTGCAACAACAGCTAGCATACCATCATTTTCTCCCGGCGCCGCAAGAAGATTTGCAGCCGATCATGGCCTGGCAGTTCATGCTGTGGCATTGAGGGTCGCCGACGCGGCTGATGCGTTCCGCGCCAGCGTGGCTGCTGGAGCTAGGCCGGCGTTCCAGCCTGCTGACCTTGGGGGTGGATTTGGATTGGCGGAGGTTGAATTATATGGTGATGTTGTGCTCCGTTTTGTTTCCCATCCAGATGGTGCTGATGCTCCATTTCTACCTGGATTTGAAGGGGTGTCAAACCCCGGCGCGGTGGATTATGGACTGCGTCGATTTGATCACGTGGTAGGTAATGTTCCTGAGTTGGCTCCCGTGGCGGCCTACATTTCAGGCTTTACTGGCTTCCATGAATTTGCCGAGTTCACCGCGGAAGATGTGGGAACTGCTGAAAGTGGATTGAACTCTGTTGTCCTGGCGAACAATGCAGAGACTGTATTGCTCCCCTTGAATGAGCCTGTGCACGGCACCAAACGGCGATCTCAAATTCAGACATACCTCGACCACCACGGGGGCCCTGGTGTTCAGCATATTGCTCTAGCCAGCGACGACGTACTGGGAACACTGAGGGAGATGAGAGCCCGTTCCGCCATGGGTGGCTTTGAGTTTCTGGCCCCTCCGCCGCCAAACTACTACGACGGCGTCAGACGGCGGGCGGGTGACGTCTTGAGTGAGGAGCAGATCAATGAATGTCAAGAACTTGGGGTTCTTGTTGATAGAGATGATCAAGGAGTGCTCCTCCAAATAGCCACAAAACCTGTTGGCGACCGCCCGACCTTCTTCCTTGAAATGATCCAAAGGATCGGCTGCATGGAGAAGGATGAATCGGGCCAGGAGTACCAGAAGGGTGGGTGTGGTGGCTTTGGGAAGGGCAACTTCAGCGAGCTGTTCAAGTCAATTGAAGAATATGAAAAATCATTGGAGGCAAAGCAAGCTCCGACGGTGCAGGGAAGCTGA", "modifications": "OsHPPDm-F372A-02 Nucleotide Sequence", "notes": "vector DBN11755"}}, "format_in_all_cases": "in vivo", "key": {"[1]": {"tested_on": "Arabidopsis thaliana T1 plants", "test": "Mesotrione tolerance of transgenic Arabidopsis thaliana T1 plants (spray, bleached leaf area grade, damage score)", "design": "Scores: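 damage score 0-100 computed as Σ(N×S)/(T×M)×100 over grades 0-3 with higher meaning more damage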", "conditions": "Arabidopsis thaliana T1 plants; for Grade 0 (classification and statistics of the grade of pesticide damage; number of plants) / Grade 1 (classification and statistics of the grade of pesticide damage; number of plants) / Grade 2 (classification and statistics of the grade of pesticide damage; number of plants) / Grade 3 (classification and statistics of the grade of pesticide damage; number of plants): 16 plants", "summary_of_the_method": "(§1)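 T1 transformants selected by glufosinate; 18-day-old plants, with empty-vector and wild-type controls, sprayed with topramezone (25–200 g ai/ha), isoxaflutole (35–280 g ai/ha) or mesotrione (52.5–420 g ai/ha), water as 0×. Bleached leaf area fraction scored at 7 DAT as grades 0–3.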"}, "[2]": {"tested_on": "Arabidopsis thaliana T1 plants", "test": "Isoxaflutole tolerance of transgenic Arabidopsis thaliana T1 plants (spray, bleached leaf area grade, damage score)", "design": "Scores (pesticide damage): scale not given here", "conditions": "spray, Arabidopsis thaliana T1 plants; for Classification and statistics of the grade of pesticide damage: Grade 0 (number of plants) / Classification and statistics of the grade of pesticide damage: Grade 1 (number of plants) / Classification and statistics of the grade of pesticide damage: Grade 2 (number of plants) / Classification and statistics of the grade of pesticide damage: Grade 3 (number of plants): 16 plants", "summary_of_the_method": "as §1"}, "[3]": {"tested_on": "Arabidopsis thaliana T1 plants", "test": "Topramezone tolerance of transgenic Arabidopsis thaliana T1 plants (spray, bleached leaf area grade, damage score)", "conditions": "7 DAT, Table 4; for Classification and statistics of the grade of pesticide damage: Grade 0 / Classification and statistics of the grade of pesticide damage: Grade 1 / Classification and statistics of the grade of pesticide damage: Grade 2 / Classification and statistics of the grade of pesticide damage: Grade 3: number of plants; for Scores: pesticide damage score 0-100", "summary_of_the_method": "as §1"}, "[4]": {"conditions": "isoxaflutole 35 g ai/ha (0.5x field concentration)"}, "[5]": {"conditions": "isoxaflutole 70 g ai/ha (1x field concentration)"}}, "data": [{"molecule": "B1", "values": [{"measurement": "Resistance evaluation", "setting": "[1]; mesotrione 52.5 g ai/ha", "value": "Poorly resistant"}, {"measurement": "Scores", "setting": "[1]; mesotrione 52.5 g ai/ha", "value": 63}, {"measurement": "Grade 0 (classification and statistics of the grade of pesticide damage; number of plants)", "setting": "[1]; mesotrione 52.5 g ai/ha", "value": 0}, {"measurement": "Grade 1 (classification and statistics of the grade of pesticide damage; number of plants)", "setting": "[1]; mesotrione 52.5 g ai/ha", "value": 5}, {"measurement": "Grade 2 (classification and statistics of the grade of pesticide damage; number of plants)", "setting": "[1]; mesotrione 52.5 g ai/ha", "value": 8}, {"measurement": "Grade 3 (classification and statistics of the grade of pesticide damage; number of plants)", "setting": "[1]; mesotrione 52.5 g ai/ha", "value": 3}, {"measurement": "Resistance evaluation", "setting": "[1]; mesotrione 105 g ai/ha", "value": "Non-resistant"}, {"measurement": "Scores", "setting": "[1]; mesotrione 105 g ai/ha", "value": 100}, {"measurement": "Grade 0 (classification and statistics of the grade of pesticide damage; number of plants)", "setting": "[1]; mesotrione 105 g ai/ha", "value": 0}, {"measurement": "Grade 1 (classification and statistics of the grade of pesticide damage; number of plants)", "setting": "[1]; mesotrione 105 g ai/ha", "value": 0}, {"measurement": "Grade 2 (classification and statistics of the grade of pesticide damage; number of plants)", "setting": "[1]; mesotrione 105 g ai/ha", "value": 0}, {"measurement": "Grade 3 (classification and statistics of the grade of pesticide damage; number of plants)", "setting": "[1]; mesotrione 105 g ai/ha", "value": 16}, {"measurement": "Resistance evaluation", "setting": "[2]; [4]", "value": "Poorly"}, {"measurement": "Scores (pesticide damage)", "setting": "[2]; [4]", "value": 52}, {"measurement": "Classification and statistics of the grade of pesticide damage: Grade 0 (number of plants)", "setting": "[2]; [4]", "value": 0}, {"measurement": "Classification and statistics of the grade of pesticide damage: Grade 1 (number of plants)", "setting": "[2]; [4]", "value": 8}, {"measurement": "Classification and statistics of the grade of pesticide damage: Grade 2 (number of plants)", "setting": "[2]; [4]", "value": 7}, {"measurement": "Classification and statistics of the grade of pesticide damage: Grade 3 (number of plants)", "setting": "[2]; [4]", "value": 1}, {"measurement": "Resistance evaluation", "setting": "[2]; [5]", "value": "Non-resistant"}, {"measurement": "Scores (pesticide damage)", "setting": "[2]; [5]", "value": 100}, {"measurement": "Classification and statistics of the grade of pesticide damage: Grade 0 (number of plants)", "setting": "[2]; [5]", "value": 0}, {"measurement": "Classification and statistics of the grade of pesticide damage: Grade 1 (number of plants)", "setting": "[2]; [5]", "value": 0}, {"measurement": "Classification and statistics of the grade of pesticide damage: Grade 2 (number of plants)", "setting": "[2]; [5]", "value": 0}, {"measurement": "Classification and statistics of the grade of pesticide damage: Grade 3 (number of plants)", "setting": "[2]; [5]", "value": 16}, {"measurement": "Classification and statistics of the grade of pesticide damage: Grade 0", "setting": "[3]; topramezone 25 g ai/ha (1×)", "value": 8}, {"measurement": "Classification and statistics of the grade of pesticide damage: Grade 1", "setting": "[3]; topramezone 25 g ai/ha (1×)", "value": 8}, {"measurement": "Classification and statistics of the grade of pesticide damage: Grade 2", "setting": "[3]; topramezone 25 g ai/ha (1×)", "value": 0}, {"measurement": "Classification and statistics of the grade of pesticide damage: Grade 3", "setting": "[3]; topramezone 25 g ai/ha (1×)", "value": 0}, {"measurement": "Classification and statistics of the grade of pesticide damage: Grade 0", "setting": "[3]; topramezone 100 g ai/ha (4×)", "value": 0}, {"measurement": "Classification and statistics of the grade of pesticide damage: Grade 1", "setting": "[3]; topramezone 100 g ai/ha (4×)", "value": 0}, {"measurement": "Classification and statistics of the grade of pesticide damage: Grade 2", "setting": "[3]; topramezone 100 g ai/ha (4×)", "value": 0}, {"measurement": "Classification and statistics of the grade of pesticide damage: Grade 3", "setting": "[3]; topramezone 100 g ai/ha (4×)", "value": 16}, {"measurement": "Scores", "setting": "[3]; topramezone 25 g ai/ha (1×)", "value": 17}, {"measurement": "Scores", "setting": "[3]; topramezone 100 g ai/ha (4×)", "value": 100}, {"measurement": "Resistance evaluation", "setting": "[3]; topramezone 25 g ai/ha (1×)", "value": "moderately"}, {"measurement": "Resistance evaluation", "setting": "[3]; topramezone 100 g ai/ha (4×)", "value": "non-resistant (non-resistant plants (scores 68-100))"}]}]}
